This note sets out measurements from patent US20200199241A1 (Chugai, published 2020).

What all share (assay): SPR (Biacore), bound amount, IL6R-BF648/IL6R-L = 100
(SPR reads the build-up and loss of mass on a sensor chip optically.)

The target in one assay is T1, FcγRIa (human, UniProt P12314 16-292, limits assumed).
T1 construct: also called FcgRIa; CD64

The next assay concerns the target T2, FcγRIIa type H (human, UniProt P12318 36-217).
T2 construct: also called FcγRIIaH; FcγRIIH
T2 sequence: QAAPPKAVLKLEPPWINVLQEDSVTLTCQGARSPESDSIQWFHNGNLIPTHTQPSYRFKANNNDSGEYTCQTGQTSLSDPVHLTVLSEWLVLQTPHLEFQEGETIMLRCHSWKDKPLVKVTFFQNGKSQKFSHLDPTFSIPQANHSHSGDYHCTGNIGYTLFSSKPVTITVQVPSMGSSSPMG

For another assay, the target named is T3, FcγRIIIa type V (human, UniProt P08637 17-208, limits assumed).
T3 construct: also called FcγRIIIaV; FcgRIIIaV
T3 sequence (P08637 other isoform, or with tags, fused parts or gaps limits assumed): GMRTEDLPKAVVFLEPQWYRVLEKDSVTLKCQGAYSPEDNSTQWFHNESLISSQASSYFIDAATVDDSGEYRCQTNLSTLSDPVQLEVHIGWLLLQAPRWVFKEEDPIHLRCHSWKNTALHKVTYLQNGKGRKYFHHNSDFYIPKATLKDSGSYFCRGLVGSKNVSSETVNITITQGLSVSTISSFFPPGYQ

For another assay, the target named is T4, FcγRIIb (human, UniProt P31994 43-217, limits assumed).
T4 construct: also called FcgRIIb; FcγIIB
T4 sequence: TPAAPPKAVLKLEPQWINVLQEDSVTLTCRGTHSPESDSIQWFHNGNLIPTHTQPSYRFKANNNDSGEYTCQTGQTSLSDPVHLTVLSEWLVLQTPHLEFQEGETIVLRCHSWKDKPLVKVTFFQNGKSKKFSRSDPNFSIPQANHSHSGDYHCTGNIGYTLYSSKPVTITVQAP

T1 sequence (P12314 16-292 limits assumed): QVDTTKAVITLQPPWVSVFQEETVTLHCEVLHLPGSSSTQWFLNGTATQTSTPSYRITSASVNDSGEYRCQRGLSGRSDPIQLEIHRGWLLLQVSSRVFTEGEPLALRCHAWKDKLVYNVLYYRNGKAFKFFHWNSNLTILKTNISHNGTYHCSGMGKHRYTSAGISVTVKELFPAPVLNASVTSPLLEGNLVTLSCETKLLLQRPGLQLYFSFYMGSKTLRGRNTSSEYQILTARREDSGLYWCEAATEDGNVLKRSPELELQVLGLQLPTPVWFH
Experimental for FcγRIIIa type V: (§1) According to the following method, relative binding activities were calculated for the results of analyzing interactions with the respective FcγRs.
Experimental for FcγRIIa type H: as §1
Experimental for FcγRIIb: as §1
Experimental for FcγRIa: as §1

B1: IL6R-BP131/IL6R-L (antibody, human IgG1)
heavy: QVQLQESGPGLVKPSETLSLTCAVSGHSISHDHAWSWVRQPPGEGLEWIGFISYSGITNYNPSLQGRVTISRDNSKNTLYLQMNSLRAEDTAVYYCARSLARTTAMDYWGEGTLVTVSSASTKGPSVFPLAPSSKSTSGGTAALGCLVKDYFPEPVTVSWNSGALTSGVHTFPAVLQSSGLYSLSSVVTVPSSSLGTQTYICNVNHKPSNTKVDKKVEPKSCDKTHTCPPCPAPDLLGDDSVFLFPPKPKDTLMISRTPEVTCVVVDVSHEDPEVKFNWYVDGVEVHNAKTKPREEQYNSTYRVVSVLTVLHQDWLNGKEYKCKVSNKALPKPIEKTISKAKGQPREPQVYTLPPSRDELTKNQVSLTCLVKGFYPSDIAVEWESNGQPENNYKTTPPVLDSDGSFFLYSKLTVDKSRWQQGNVFSCSVMHEALHNHYTQESLSLSP
light: DIQMTQSPSSLSASVGDRVTITCRASQDISSYLNWYQQKPGKAPKLLIYYTSRLHSGVPSRFSGSGSGTDFTFTISSLQPEDIATYYCQQGNTLPYTFGQGTKVEIK
notes: IgG1; Fc variant of IL6R-B3; copies: 2 + 2
As for B1, the relative binding activity in the assay with FcγRIa is 33 % of control; with FcγRIIa type H, 253 % of control; in the assay with FcγRIIIa type V it was 118 % of control.

B2: IL6R-BP201/IL6R-L (antibody, human IgG1)
heavy: QVQLQESGPGLVKPSETLSLTCAVSGHSISHDHAWSWVRQPPGEGLEWIGFISYSGITNYNPSLQGRVTISRDNSKNTLYLQMNSLRAEDTAVYYCARSLARTTAMDYWGEGTLVTVSSASTKGPSVFPLAPSSKSTSGGTAALGCLVKDYFPEPVTVSWNSGALTSGVHTFPAVLQSSGLYSLSSVVTVPSSSLGTQTYICNVNHKPSNTKVDKKVEPKSCDKTHTCPPCPAPDLLGDDSVFLFPPKPKDTLMISRTPEVTCVVVDVSHEDGEVKFNWYVDGVEVHNAKTKPREEQYNSTYRVVSVLTVLHQDWLNGKEYKCKVSNKALPRPIEKTISKAKGQPREPQVYTLPPSRDELTKNQVSLTCLVKGFYPSDIAVEWESNGQPENNYKTTPPVLDSDGSFFLYSKLTVDKSRWQQGNVFSCSVMHEALHNHYTQESLSLSP
light: DIQMTQSPSSLSASVGDRVTITCRASQDISSYLNWYQQKPGKAPKLLIYYTSRLHSGVPSRFSGSGSGTDFTFTISSLQPEDIATYYCQQGNTLPYTFGQGTKVEIK
notes: as for B1
Regarding B2, the relative binding activity with FcγRIa was 57 % of control; with FcγRIIa type H, 359 % of control; with FcγRIIb it was 186 % of control.

B3: IL6R-BP210/IL6R-L (antibody, human IgG1)
heavy: QVQLQESGPGLVKPSETLSLTCAVSGHSISHDHAWSWVRQPPGEGLEWIGFISYSGITNYNPSLQGRVTISRDNSKNTLYLQMNSLRAEDTAVYYCARSLARTTAMDYWGEGTLVTVSSASTKGPSVFPLAPSSKSTSGGTAALGCLVKDYFPEPVTVSWNSGALTSGVHTFPAVLQSSGLYSLSSVVTVPSSSLGTQTYICNVNHKPSNTKVDKKVEPKSCDKTHTCPPCPAPELLGDDSVFLFPPKPKDTLMISRTPEVTCVVVDVSDEDGEVKFNWYVDGVEVHNAKTKPREEQYNSTYRVVSVLTVLHQDWLNGKEYKCKVSNKALPRPIEKTISKAKGQPREPQVYTLPPSRDELTKNQVSLTCLVKGFYPSDIAVEWESNGQPENNYKTTPPVLDSDGSFFLYSKLTVDKSRWQQGNVFSCSVMHEALHNHYTQESLSLSP
light: DIQMTQSPSSLSASVGDRVTITCRASQDISSYLNWYQQKPGKAPKLLIYYTSRLHSGVPSRFSGSGSGTDFTFTISSLQPEDIATYYCQQGNTLPYTFGQGTKVEIK
notes: as for B1
Regarding B3, the relative binding activity was 57 % of control with FcγRIa, 279 % of control in the assay with FcγRIIa type H and 187 % of control with FcγRIIb.

B4: IL6R-BP202/IL6R-L (antibody, human IgG1)
heavy: QVQLQESGPGLVKPSETLSLTCAVSGHSISHDHAWSWVRQPPGEGLEWIGFISYSGITNYNPSLQGRVTISRDNSKNTLYLQMNSLRAEDTAVYYCARSLARTTAMDYWGEGTLVTVSSASTKGPSVFPLAPSSKSTSGGTAALGCLVKDYFPEPVTVSWNSGALTSGVHTFPAVLQSSGLYSLSSVVTVPSSSLGTQTYICNVNHKPSNTKVDKKVEPKSCDKTHTCPPCPAPELLGDDSVFLFPPKPKDTLMISRTPEVTCVVVDVSHEDGEVKFNWYVDGVEVHNAKTKPREEQYNSTYRVVSVLTVLHQDWLNGKEYKCKVSNAALPRPIEKTISKAKGQPREPQVYTLPPSRDELTKNQVSLTCLVKGFYPSDIAVEWESNGQPENNYKTTPPVLDSDGSFFLYSKLTVDKSRWQQGNVFSCSVMHEALHNHYTQESLSLSP
light: DIQMTQSPSSLSASVGDRVTITCRASQDISSYLNWYQQKPGKAPKLLIYYTSRLHSGVPSRFSGSGSGTDFTFTISSLQPEDIATYYCQQGNTLPYTFGQGTKVEIK
notes: as for B1
Consider B4, for which the relative binding activity is 43 % of control in the assay with FcγRIa, 285 % of control in the assay with FcγRIIa type H and 185 % of control with FcγRIIb.

B5: IL6R-BP212/IL6R-L (antibody, human IgG1)
heavy: QVQLQESGPGLVKPSETLSLTCAVSGHSISHDHAWSWVRQPPGEGLEWIGFISYSGITNYNPSLQGRVTISRDNSKNTLYLQMNSLRAEDTAVYYCARSLARTTAMDYWGEGTLVTVSSASTKGPSVFPLAPSSKSTSGGTAALGCLVKDYFPEPVTVSWNSGALTSGVHTFPAVLQSSGLYSLSSVVTVPSSSLGTQTYICNVNHKPSNTKVDKKVEPKSCDKTHTCPPCPAPDLLGGDSVFLFPPKPKDTLMISRTPEVTCVVVDVSDEDGEVKFNWYVDGVEVHNAKTKPREEQDNSTYRVVSVLTVLHQDWLNGKEYKCKVSNKALPRPIEKTISKAKGQPREPQVYTLPPSRDELTKNQVSLTCLVKGFYPSDIAVEWESNGQPENNYKTTPPVLDSDGSFFLYSKLTVDKSRWQQGNVFSCSVMHEALHNHYTQESLSLSP
light: DIQMTQSPSSLSASVGDRVTITCRASQDISSYLNWYQQKPGKAPKLLIYYTSRLHSGVPSRFSGSGSGTDFTFTISSLQPEDIATYYCQQGNTLPYTFGQGTKVEIK
notes: as for B1
With B5, the relative binding activity with FcγRIa is 117 % of control; in the assay with FcγRIIa type H, 135 % of control; in the assay with FcγRIIb, 173 % of control.

B6: IL6R-BP181/IL6R-L (antibody, human IgG1)
heavy: QVQLQESGPGLVKPSETLSLTCAVSGHSISHDHAWSWVRQPPGEGLEWIGFISYSGITNYNPSLQGRVTISRDNSKNTLYLQMNSLRAEDTAVYYCARSLARTTAMDYWGEGTLVTVSSASTKGPSVFPLAPSSKSTSGGTAALGCLVKDYFPEPVTVSWNSGALTSGVHTFPAVLQSSGLYSLSSVVTVPSSSLGTQTYICNVNHKPSNTKVDKKVEPKSCDKTHTCPPCPAPDLLGGDSVFLFPPKPKDTLMISRTPEVTCVVVDVSHEDGEVKFNWYVDGVEVHNAKTKPREEQYNSTYRVVSVLTVLHQDWLNGKEYKCKVSNAALPKPIEKTISKAKGQPREPQVYTLPPSRDELTKNQVSLTCLVKGFYPSDIAVEWESNGQPENNYKTTPPVLDSDGSFFLYSKLTVDKSRWQQGNVFSCSVMHEALHNHYTQESLSLSP
light: DIQMTQSPSSLSASVGDRVTITCRASQDISSYLNWYQQKPGKAPKLLIYYTSRLHSGVPSRFSGSGSGTDFTFTISSLQPEDIATYYCQQGNTLPYTFGQGTKVEIK
notes: as for B1
B6: the values for the relative binding activity with FcγRIIa type H and with FcγRIIIa type V were 150 % of control and 122 % of control, respectively.

B7: IL6R-BP205/IL6R-L (antibody, human IgG1)
heavy: QVQLQESGPGLVKPSETLSLTCAVSGHSISHDHAWSWVRQPPGEGLEWIGFISYSGITNYNPSLQGRVTISRDNSKNTLYLQMNSLRAEDTAVYYCARSLARTTAMDYWGEGTLVTVSSASTKGPSVFPLAPSSKSTSGGTAALGCLVKDYFPEPVTVSWNSGALTSGVHTFPAVLQSSGLYSLSSVVTVPSSSLGTQTYICNVNHKPSNTKVDKKVEPKSCDKTHTCPPCPAPDLLGGDSVFLFPPKPKDTLMISRTPEVTCVVVDVSHEDGEVKFNWYVDGVEVHNAKTKPREEQDNSTYRVVSVLTVLHQDWLNGKEYKCKVSNKALPRPIEKTISKAKGQPREPQVYTLPPSRDELTKNQVSLTCLVKGFYPSDIAVEWESNGQPENNYKTTPPVLDSDGSFFLYSKLTVDKSRWQQGNVFSCSVMHEALHNHYTQESLSLSP
light: DIQMTQSPSSLSASVGDRVTITCRASQDISSYLNWYQQKPGKAPKLLIYYTSRLHSGVPSRFSGSGSGTDFTFTISSLQPEDIATYYCQQGNTLPYTFGQGTKVEIK
notes: as for B1
For B7, the relative binding activity was 97 % of control in the assay with FcγRIa, 108 % of control with FcγRIIa type H and 167 % of control with FcγRIIb.

B8: IL6R-BP151/IL6R-L (antibody, human IgG1)
heavy: QVQLQESGPGLVKPSETLSLTCAVSGHSISHDHAWSWVRQPPGEGLEWIGFISYSGITNYNPSLQGRVTISRDNSKNTLYLQMNSLRAEDTAVYYCARSLARTTAMDYWGEGTLVTVSSASTKGPSVFPLAPSSKSTSGGTAALGCLVKDYFPEPVTVSWNSGALTSGVHTFPAVLQSSGLYSLSSVVTVPSSSLGTQTYICNVNHKPSNTKVDKKVEPKSCDKTHTCPPCPAPDYLGDDSVFLFPPKPKDTLMISRTPEVTCVVVDVSHEDPEVKFNWYVDGVEVHNAKTKPREEQYNSTYRVVSVLTVLHQDWLNGKEYKCKVSNAALPRPIEKTISKAKGQPREPQVYTLPPSRDELTKNQVSLTCLVKGFYPSDIAVEWESNGQPENNYKTTPPVLDSDGSFFLYSKLTVDKSRWQQGNVFSCSVMHEALHNHYTQESLSLSP
light: DIQMTQSPSSLSASVGDRVTITCRASQDISSYLNWYQQKPGKAPKLLIYYTSRLHSGVPSRFSGSGSGTDFTFTISSLQPEDIATYYCQQGNTLPYTFGQGTKVEIK
notes: as for B1
Consider B8, for which the figures for the relative binding activity in the assay with FcγRIa, with FcγRIIa type H and with FcγRIIIa type V were 39 % of control, 621 % of control and 221 % of control, respectively.
